# Assay results from patent US20230192897A1 (NUMAB THERAPEUTICS, published 2023).
# “And” between values parts separate entries of the source, which are not always exact repeats. Equal entries are not always repeated. Where two headings read alike, the source gives them in different places.
# T1: mouse CD137-Fc chimeric protein (mouse, UniProt P20334 24-187, limits assumed)
# T1 sequence (looked up): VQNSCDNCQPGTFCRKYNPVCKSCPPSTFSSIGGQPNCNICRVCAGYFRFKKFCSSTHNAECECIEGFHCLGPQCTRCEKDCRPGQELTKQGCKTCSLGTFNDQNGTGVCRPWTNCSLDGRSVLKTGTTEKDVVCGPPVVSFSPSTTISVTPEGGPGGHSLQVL
# B1: PRO1186 (other)
# chain: DIQMTQSPSSLSASVGDRVTITCQASQSIGTYLAWYQQKPGKAPKLLIYRAFILASGVPSRFSGSGSGTDFTLTISSLQPEDFATYYCQSNFYSDSTTIGPNAFGTGTKVTVLGGGGGSQVQLQESGPGLVKPSETLSLTCKVSGFSFSNSYWICWIRQPPGKGLEWIGCTFVGSSDSTYYANWAKGRVTISVDSSKNQFSLKLSSVTAADTAVYYCARHPSDAVYGYANNLWGQGTLVTVSSGGGGSGGGGSGGGGSGGGGSDIQMTQSPSSLSASVGDRVTITCQASQSINNVLAWYQQKPGKAPKLLIYRASTLASGVPSRFSGSGSGTDFTLTISSLQPEDFATYYCQSSYGNYGDFGTGTKVTVLGGGGGSQVQLQESGPGLVKPSETLSLTCKVSGFSFNSDYWIYWIRQPPGKGLEWIGSIYGGSSGNTQYASWAQGRVTISVDSSKNQFSLKLSSVTAADTAVYYCARGYVDYGGATDLWGQGTLVTVSSGGGGSGGGGSVVMTQSPSSLSASVGDRVTITCQASQIISSRSAWYQQKPGQPPKLLIYQASKLASGVPSRFSGSGSGTDFTLTISSLQPEDFATYYCQCTYIDSNFGAFGGGTKLTVLGGGGGSGGGGSGGGGSGGGGSEVQLVESGGGLVQPGGSLRLSCAASGFSFSSSYWICWVRQAPGKGLEWVGCVFTGDGTTYYASWAKGRFTISRDNSKNTVYLQMNSLRAEDTATYFCARPVSVYYYGMDLWGQGTLVTVSS
# notes: trispecific scDb-scFv; also called 38-02-A04 sc01 scDb-i/37-20-B03sc01 scDb-o/23-13-A01-sc03 scFv
# B2: PRO885 (bispecific antibody)
# chain: DIQMTQSPSSLSASVGDRVTITCQASQSINDYLAWYQQKPGKAPKLLIYKASTLASGVPSRFSGSGSGTDFTLTISSLQPEDFATYYCQQGYIITDIDNVFGTGTKVTVLGGGGGSQVQLQESGPGLVKPSETLSLTCKVSGFSFSNSYWICWIRQPPGKGLEWIGCTFVGSSDSTYYANWAKGRVTISVDSSKNQFSLKLSSVTAADTAVYYCARHPSDAVYGYANNLWGQGTLVTVSSGGGGSGGGGSGGGGSGGGGSIQMTQSPSSLSASVGDRVTITCQASQSINNVLAWYQQKPGKAPKLLIYRASTLASGVPSRFSGSGSGTDFTLTISSLQPEDFATYYCQSSYGNYGDFGTGTKVTVLGGGGGSQVQLQESGPGLVKPSETLSLTCKVSGFSFSSGYDMCWIRQPPGKGLEWIGCVVAGSVDITYYASWAKGRVTISVDSSKNQFSLKLSSVTAADTAVYYCARKDAYSDAFNLWGQGTLVTVSS
# notes: scDb anti-PDL1 x CD137; also called 38-02-A04 sc01 scDb-i/33-03-G02 sc01 scDb-o
# Legend:
# [1] = molecular target: human PDL1 on cells (human, UniProt Q9NZQ7 19-290); test: cell-based or functional assay
# [2] = molecular target: T2, CD137 on Jurkat NFkB reporter cells (human, UniProt Q07011 24-255); test: cell-based or functional assay
# [3] = molecular target: T3, mouse serum albumin (mouse, UniProt P07724 25-608); test: SPR, SA coupled to chip, pH 5.5
# T3 construct: Coupled directly to the CM5 chip; also called MSA; mouse SA
# Experimental: (§1) Affinity of molecules to serum albumin (SA) of the different species was determined by SPR measurements using a Biacore T200 device (GE Healthcare). SA was directly coupled to a CM5 sensor chip (GE Healthcare) using amine coupling chemistry. […] The assay was run in a 1× PBS-Tween buffer at pH 5.5.
# [4] = molecular target: T4, human serum albumin (human, UniProt P02768 25-609); test: SPR, SA coupled to chip, pH 5.5
# T4 construct: Coupled directly to the CM5 chip; also called HSA; human SA
# Experimental: as §1
# [5] = molecular target: T5, Fc tagged human CD137 (human, UniProt Q07011 24-186); test: SPR
# T5 construct: also called CD137-Fc chimeric protein
# Outline: (§2)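 Kinetics were fitted with a one-to-one Langmuir model to give apparent ka, kd and KD. Binders at 0.12-90 nM (three-fold series) flowed 3 min, with 10 min dissociation and 3 M MgCl₂ regeneration, on a Biacore T200.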
# [6] = molecular target: T6, Fc tagged human PDL1 (human, UniProt Q9NZQ7 19-239); test: SPR
# T6 construct: Bought (Sino Biological, cat. 10084-H02H); captured on the SPR chip; also called PDL1-Fc chimeric protein
# Outline: as §2
# [7] = molecular target: T7, biotinylated human PDL1 (human, UniProt Q9NZQ7 19-238, limits assumed, biotinylated); test: competition ELISA PD-1/PDL1
# T7 construct: also called biotinylated PDL1
# [8] = molecular target: T7, biotinylated human PDL1; test: competition ELISA B7.1/PDL1
# Outline: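 Test mixtures containing biotinylated human PDL1 were pre-incubated 1 h at room temperature, then incubated 1.5 h on the plate under agitation. Bound PDL1 detected with 10 ng/ml streptavidin-polyHRP40 and TMB, stopped at 6 min with HCl, read at 450 nm minus 690 nm. IC₅₀ from 4PL fit.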
# [9] = molecular target: T1, mouse CD137-Fc chimeric protein; test: SPR
# Outline: as §2
# [10] = molecular target: cynomolgus CD137-Fc chimeric protein (cynomolgus monkey, UniProt A9YYE7 24-186); test: SPR
# Outline: as §2
# [11] = molecular target: T2, CD137 on Jurkat NFkB reporter cells; test: cell-based or functional assay; remark: listed apart in the source
# [12] = molecular target: T2, CD137 on Jurkat NFkB reporter cells; test: cell-based or functional assay; remark: listed apart in the source
# [13] = molecular target: T2, CD137 on Jurkat NFkB reporter cells; test: cell-based or functional assay; remark: listed apart in the source
# [14] = molecular target: T2, CD137 on Jurkat NFkB reporter cells; test: cell-based or functional assay; remark: listed apart in the source
# [15] = molecular target: T2, CD137 on Jurkat NFkB reporter cells; test: cell-based or functional assay; remark: listed apart in the source
# [16] = molecular target: T2, CD137 on Jurkat NFkB reporter cells; test: cell-based or functional assay; remark: listed apart in the source
# [17] = molecular target: T2, CD137 on Jurkat NFkB reporter cells; test: cell-based or functional assay; remark: listed apart in the source
binder,measurement,setting,value
B1,"IC50 (ng/ml), NF-AT potency assay, +HSA",[1],10.2 ng/mL
same,"rel. IC50 (avelumab/test), +HSA",[1],2.31 fold
same,"IC50 (ng/ml), NFkB reporter, CHO-PD-L1, 24 h, +HSA",[2],51 ng/mL
same,"IC50 (ng/ml), NFkB reporter, HCC827 + IFNg, 24 h, +HSA",[2],16.7 ng/mL
same,"max. activation (%), NFkB reporter, CHO-PD-L1, 24 h, +HSA",[2],152%
same,"rel. IC50 (urelumab/test), NFkB reporter, CHO-PD-L1, 24 h, +HSA",[2],0.97 fold
same,"rel. IC50 (urelumab/test), NFkB reporter, HCC827 + IFNg, 24 h, +HSA",[2],1.88 fold
same,kon,[3],220000 M⁻¹ s⁻¹
same,Kd,[4],2.9 nM
same,koff,[4],0.00072 s⁻¹
same,kon,[4],250000 M⁻¹ s⁻¹
same,Kd,[5],2.6 nM
same,koff,[5],0.0005 s⁻¹
same,Kd,[6],0.0037 nM
same,koff,[6],2.3e-05 s⁻¹
same,kon,[6],6.2e+06 M⁻¹ s⁻¹
same,IC50,[7],1.74 ng/mL
same,rel. IC50 (IC50 avelumab/IC50 test),[7],1.26 fold
same,IC50,[8],7.81 ng/mL
same,rel. IC50 (IC50 avelumab/IC50 test),[8],1.58 fold
B2,"IC50 (ng/ml), NF-AT potency assay",[1],137 ng/mL
same,rel. IC50 (avelumab/test),[1],0.28 fold
same,"IC50 (ng/ml), NFkB reporter, CHO-PD-L1",[2],11.7 ng/mL
same,"IC50 (ng/ml), NFkB reporter, HCC827 + IFNg",[2],8.88 ng/mL
same,"IC50 (ng/ml), NFkB reporter, HCC827 - IFNg",[2],13.1 ng/mL
same,"max. activation (%), NFkB reporter, CHO-PD-L1",[2],499%
same,"max. activation (%), NFkB reporter, HCC827 + IFNg",[2],134%
same,"max. activation (%), NFkB reporter, HCC827 - IFNg",[2],111%
same,"rel. IC50 (urelumab/test), NFkB reporter, CHO-PD-L1",[2],6.75 fold
same,"rel. IC50 (urelumab/test), NFkB reporter, HCC827 + IFNg",[2],16.3 fold
same,"rel. IC50 (urelumab/test), NFkB reporter, HCC827 - IFNg",[2],8.42 fold
same,koff,[5],0.00076 s⁻¹
same,kon,[5],240000 M⁻¹ s⁻¹
same,Kd,[9],600 nM
same,koff,[9],0.18 s⁻¹
same,kon,[9],290000 M⁻¹ s⁻¹
same,Kd,[10],2.1 nM
same,koff,[10],0.0007 s⁻¹
same,kon,[10],340000 M⁻¹ s⁻¹
same,koff,[6],0.00014 s⁻¹
same,kon,[6],2.1e+06 M⁻¹ s⁻¹
same,IC50,[7],8.35 ng/mL
same,rel. IC50 (IC50 avelumab/IC50 test),[7],0.17 fold
same,"EC50, NFkB reporter, CHO-PDL1, 24 h",[11],13.8 ng/mL
same,"EC50, NFkB reporter, CHO-PDL1, 24 h, +HSA",[11],14.8 ng/mL
same,"EC50, NFkB reporter, HCC827 with IFNg, 24 h",[12],7.51 ng/mL
same,"EC50, NFkB reporter, HCC827 without IFNg, 24 h",[12],9.52 ng/mL
same,"EC50, NFkB reporter, CHO-PDL1",[13],5.13 ng/mL and 4.86 ng/mL and 6.3 ng/mL
same,"EC50, NFkB reporter, CHO-PDL1",[14],11.7 ng/mL
same,IC50,[8],12.2 ng/mL
same,rel. IC50 (IC50 avelumab/IC50 test),[8],0.59 fold
same,"EC50, NFkB reporter, HCC827 without IFNg",[15],11.5 ng/mL and 13.1 ng/mL and 13 ng/mL
same,"EC50, NFkB reporter, HCC827 with IFNg",[16],9.27 ng/mL and 8.88 ng/mL and 9.23 ng/mL
same,"EC50, NFkB reporter, CHO-PDL1, 6 h",[17],7.84 ng/mL
same,"EC50, NFkB reporter, CHO-PDL1, 6 h, +HSA",[17],7.92 ng/mL
